{"source": "patent US20090281024A1", "about": "(RAPTOR PHARMACEUTICALS, published 2009)", "binders": {"B1": {"name": "LRP2 CR89 (receptor)", "chain": "not shown", "notes": "domain: CR89; Limits of the fragment are set only by the primers LRP2CR8F and LRP2CR9R; also called YVWR; L2 CR89; not shown: N-terminal hexahistidine and S-peptide tags of pET30(+)a"}}, "key": {"MegaRAP1 d3 [1]": {"target": "T1, MegaRAP1 d3 (human, UniProt P30533 235-353)", "T1 construct": "range 201-319 (mature RAP numbering); d3 of the variant selected on LRP2 CR89; also called RAPv2A d3; RAP v2A; not shown: N-terminal hexahistidine and S-peptide tags of pET30(+)a", "T1 sequence (looked up)": "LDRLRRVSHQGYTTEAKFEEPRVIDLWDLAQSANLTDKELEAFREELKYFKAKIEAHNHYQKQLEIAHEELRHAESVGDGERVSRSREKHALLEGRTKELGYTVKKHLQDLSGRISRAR", "experiment": "solid-phase assay, coated CR protein", "protocol": "(§1) Wells were washed with TBSTC and bound ligands detected with polyclonal anti-RAP (BP41/42, 1:1,000, BioMarin). Excess primary antibody was removed and wells washed before incubation with the secondary antibody, HRP-conjugated goat anti rabbit IgG (Bio-Rad). After washing, TMB substrate solutions (Bio-Rad) were added to detect HRP. Color development was stopped with 1N HCl. Absorption at 450 nm was measured with a microplate spectrophotometer (Molecular Devices). Data were plotted and Kd values derived by non-linear regression with the assumption of single-site binding (GraphPad Prism).\n(§2) Next, the binding of RAP d3 and MegaRAP1 d3 proteins to LRP1 CR3-5 and LRP2 CR89 was assessed. […] In all cases, 10 mM EGTA prevented binding of both RAP d3 and MegaRAP1 d3 to CR proteins. Since calcium was the only divalent metal ion present in the binding buffer, this observation is consistent with both RAP d3 and MegaRAP1 d3 binding to calcium-loaded CR pairs. […] Therefore, wild-type RAP d3 and MegaRAP1 d3 have inverted binding preferences for these two receptor fragments."}, "[2]": {"target": "T2, RAP d3 E251K, K256A, K270E (human, UniProt P30533 235-353)", "T2 construct": "range 201-319 (mature RAP numbering); Forward mutant of m1; same construct; also called RAP E251K, K256A, K270E; not shown: N-terminal hexahistidine and S-peptide tags of pET30(+)a", "T2 sequence (looked up)": "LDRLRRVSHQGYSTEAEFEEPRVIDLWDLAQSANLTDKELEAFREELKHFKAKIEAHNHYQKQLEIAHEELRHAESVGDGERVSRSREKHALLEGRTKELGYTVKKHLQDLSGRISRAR", "experiment": "solid-phase assay, coated CR protein", "protocol": "as §1, §2"}, "MegaRAP1 d3 [3]": {"target": "T1, MegaRAP1 d3", "experiment": "solid-phase assay, coated CR protein (same value as Table 1)"}, "RAP d3 E251K, K270E": {"target": "T3, RAP d3 E251K, K270E (human, UniProt P30533 235-353)", "T3 construct": "range 201-319 (mature RAP numbering); Forward mutant of m1; same construct; also called RAP E251K, K270E; not shown: N-terminal hexahistidine and S-peptide tags of pET30(+)a", "T3 sequence (looked up)": "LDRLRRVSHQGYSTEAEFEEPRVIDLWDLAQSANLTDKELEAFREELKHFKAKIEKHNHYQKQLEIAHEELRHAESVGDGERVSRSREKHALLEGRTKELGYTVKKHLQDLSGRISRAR", "experiment": "solid-phase binding assay: LRP2 CR89 coated on the plate, d3 ligand in solution, anti-RAP detection, absorbance", "protocol": "(§3) Solid phase binding assays—Purified, refolded CR protein (1 μg) was bound to Nunc Maxisorp™ 96-well plates in TBS pH 8 supplemented with 5 mM CaCl₂ (TBSC) overnight at 4° C. Wells were washed with TBSC and then blocked with TBSC containing 2% bovine serum albumin (BSA). RAP ligands were then incubated with the immobilized receptor at a range of concentrations for 2 hours in the above blocking buffer supplemented with 0.05% Tween-20 at room temperature. Control wells contained no added ligand. As an additional control, to determine whether the absence of calcium affected binding, 10 mM EGTA was included in the incubation medium for some samples. Wells were washed with TBSTC and bound ligands detected with polyclonal anti-RAP (BP41/42, 1:1,000, BioMarin). Excess primary antibody was removed and wells washed before incubation with the secondary antibody, HRP-conjugated goat anti rabbit IgG (Bio-Rad). After washing, TMB substrate solutions (Bio-Rad) were added to detect HRP. Color development was stopped with 1N HCl. Absorption at 450 nm was measured with a microplate spectrophotometer (Molecular Devices). Data were plotted and Kd values derived by non-linear regression with the assumption of single-site binding (GraphPad Prism).\nas §2"}, "RAP d3 E251K": {"target": "T4, RAP d3 E251K (human, UniProt P30533 235-353)", "T4 construct": "range 201-319 (mature RAP numbering); Forward mutant of m1; same construct; also called RAP E251K; not shown: N-terminal hexahistidine and S-peptide tags of pET30(+)a", "T4 sequence (looked up)": "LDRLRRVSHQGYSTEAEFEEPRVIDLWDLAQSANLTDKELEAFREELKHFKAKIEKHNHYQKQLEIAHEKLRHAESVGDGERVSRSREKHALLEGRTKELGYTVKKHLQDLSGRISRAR", "experiment": "solid-phase binding assay: LRP2 CR89 coated on the plate, d3 ligand in solution, anti-RAP detection, absorbance", "protocol": "as §3, §2"}, "RAP d3 K256A, K270E": {"target": "T5, RAP d3 K256A, K270E (human, UniProt P30533 235-353)", "T5 construct": "range 201-319 (mature RAP numbering); Forward mutant of m1; same construct; also called RAP K256A, K270E; not shown: N-terminal hexahistidine and S-peptide tags of pET30(+)a", "T5 sequence (looked up)": "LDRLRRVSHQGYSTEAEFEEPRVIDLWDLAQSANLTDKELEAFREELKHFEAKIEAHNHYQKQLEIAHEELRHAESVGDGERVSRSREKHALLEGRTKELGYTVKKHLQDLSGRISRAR", "experiment": "solid-phase binding assay: LRP2 CR89 coated on the plate, d3 ligand in solution, anti-RAP detection, absorbance", "protocol": "as §3, §2"}, "RAP d3 K270E": {"target": "T6, RAP d3 K270E (human, UniProt P30533 235-353)", "T6 construct": "range 201-319 (mature RAP numbering); Forward mutant of m1; same construct; also called RAP K270E; not shown: N-terminal hexahistidine and S-peptide tags of pET30(+)a", "T6 sequence (looked up)": "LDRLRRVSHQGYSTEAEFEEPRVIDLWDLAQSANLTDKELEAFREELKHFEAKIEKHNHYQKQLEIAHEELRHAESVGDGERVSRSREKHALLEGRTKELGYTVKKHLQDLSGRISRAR", "experiment": "solid-phase binding assay: LRP2 CR89 coated on the plate, d3 ligand in solution, anti-RAP detection, absorbance", "protocol": "as §3, §2"}}}
{"binder": "B1", "values": [{"measurement": "Kd", "setting": "MegaRAP1 d3 [1]", "result": 38, "unit": "nM"}, {"measurement": "Kd", "setting": "[2]", "result": 114, "unit": "nM"}, {"measurement": "Kd", "setting": "MegaRAP1 d3 [3]", "result": 38, "unit": "nM"}, {"measurement": "binding result", "setting": "RAP d3 E251K, K270E", "result": "no binding (tested: 100 nM)"}, {"measurement": "binding result", "setting": "RAP d3 E251K", "result": "no binding (tested: 100 nM)"}, {"measurement": "binding result", "setting": "RAP d3 K256A, K270E", "result": "no binding (tested: 100 nM)"}, {"measurement": "binding result", "setting": "RAP d3 K270E", "result": "no binding (tested: 100 nM)"}]}
